Results from PMC8273888.

Legend:
Experiment in all cases: Kinetic parameters of hydrolysis of cephalosporin conjugates
Assay type in all cases: biochemical
Conditions in all cases: other: compound as substrate of IMP-28; pH 7.2; 25.0 °C
[1] = substrate: [H][C@]12SCC(CSC(C(=O)O)c3ccccc3)=C(C(=O)O)N1C(=O)[C@H]2NC(=O)Cc1ccccc1
[2] = substrate: [H][C@]12SCC(CSCCc3ccccc3)=C(C(=O)O)N1C(=O)[C@H]2NC(=O)Cc1ccccc1
[3] = substrate: [H][C@]12SCC(CSCc3ccccc3)=C(C(=O)O)N1C(=O)[C@H]2NC(=O)Cc1ccccc1
[4] = substrate: [H][C@]12SCC(CS[C@@H](Cc3ccccc3)C(=O)O)=C(C(=O)O)N1C(=O)[C@H]2NC(=O)Cc1ccccc1
[5] = substrate: [H][C@]12SCC(CS[C@H](Cc3ccccc3)C(=O)O)=C(C(=O)O)N1C(=O)[C@H]2NC(=O)Cc1ccccc1

B1: IMP-28 (Klebsiella oxytoca) (protein)
chain: ESLPDLKIERLDEGVYVHTSFEEVNGWGVVPKHGLVVLVNTEAYLIDTPFTAKDTEKLVTWFVGRGYKIKGSISSHFHSDSTGGIEWLNSQSIPTYASELTNELLKKDGKVQAKNSFGGVSYWLVKNKIEVFYPGPGHTPDNVVVWLPENRVLFGGCFVKPYGLGNLGDANLEAWPKSAKLLMSKYGKAKLVVPSHSEVGDASLLKRTLEHAVKGLNESKKPSKPSN
Protein B1 has a Km [1] of 129 ± 13 µM, a kcat [1] of 0.386 s⁻¹ and a kcat/Km [1] of 3000 M⁻¹ s⁻¹. It also gave a Km [2] of 83.3 ± 16 µM, a kcat [2] of 6.12 s⁻¹ and a kcat/Km [2] of 73000 M⁻¹ s⁻¹. The Km [3] was 20.5 ± 4 µM, the kcat [3] was 10.8 s⁻¹ and the kcat/Km [3] was 529000 M⁻¹ s⁻¹. The Km [4] was 175 ± 19 µM, the kcat [4] was 41 s⁻¹ and the kcat/Km [4] was 234000 M⁻¹ s⁻¹. It also gave a Km [5] of 249 ± 7 µM, a kcat [5] of 2.83 s⁻¹ and a kcat/Km [5] of 11000 M⁻¹ s⁻¹.
